B1: ZNF511 (parent)
chain: EPLPVERDPAAGAAPFRFVARPVR
B2: FAM189A2 (parent)
chain: CALNALTTTVCLVAAALRYLQIFA

Variants of: B1
Experiment: protein stability index of a GFP-peptide fusion (GPS, HEK-293T) (PSI 1-6); higher = more stable
Conditions: c terminus: a fixed tail appended
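Note: lentivirally expressed fusions sorted by FACS into six bins by GFP to DsRed ratio, PSI derived from sequencing read proportions per bin multiplied by bin number.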

Variant | protein stability index
EPLPVERDPAAGAAPFRFVARPCR | 3.19
EPLPVERDPAAGAAPFRFVARPTR | 2.17
EPLPVERDPAAGAAPFRFVARPIR | 3
EPLPVERDPAAGAAPFRFVARPRR | 2.8
EPLPVERDPAAGAAPFRFVARPMR | 2.4
EPLPVERDPAAGAAPFRFVARPDR | 2.4
EPLPVERDPAAGAAPFRFVARPKR | 2.01
EPLPVERDPAAGAAPFRFGARPVR | 5.14
EPLPVERDPAAGAAPFRFCARPVR | 3.22
EPLPVERDPAAGAAPFRFWARPVR | 3.65
EPLPVERDPAAGAAPFRFVARPVC | 2.22
EPLPVERDPAAGAAPFRFVARPVQ | 1.77
EPLPVERDPAAGAAPFRFVARPVS | 1.81
EPLPVERDPAAGAAPFRFVARPVP | 2.75
EPLPVERDPAAGAAPFRFVARPVH | 2.02
EPLPVERDPAAGAAPFRFVARPVV | 1.7
EPLPVERDMAAGAAPFRFVARPVR | 2.73
EPLPVERDFAAGAAPFRFVARPVR | 2.17
EPLPVERDKAAGAAPFRFVARPVR | 1.46
EPLPVERDWAAGAAPFRFVARPVR | 1.33
EPLPVERDRAAGAAPFRFVARPVR | 1.54
EPLPVERDSAAGAAPFRFVARPVR | 2.08
EPLIVERDPAAGAAPFRFVARPVR | 2.9

Variant | protein stability index
EPLGVERDPAAGAAPFRFVARPVR | 2.63
EPLEVERDPAAGAAPFRFVARPVR | 2.43
EPLRVERDPAAGAAPFRFVARPVR | 3.23
EPLKVERDPAAGAAPFRFVARPVR | 2.09
EPLTVERDPAAGAAPFRFVARPVR | 2.8
EPLQVERDPAAGAAPFRFVARPVR | 1.99
EPLAVERDPAAGAAPFRFVARPVR | 2.88
EPLPVERDPAAGAKPFRFVARPVR | 3.16
EPLPVERDPAAGAPPFRFVARPVR | 2.52
EPLPVERDPAAGANPFRFVARPVR | 2.69
EPLPVERDPAAGALPFRFVARPVR | 2.44
EPLPVERDPAAGAIPFRFVARPVR | 1.31
EPLPVERDPAAGAEPFRFVARPVR | 4.11
EPLPVERDPAAGAYPFRFVARPVR | 1.96
EPLPVERDPAAGARPFRFVARPVR | 2.68
EPLPVERDPAAGAQPFRFVARPVR | 2.91
EPLPVERDPKAGAAPFRFVARPVR | 1.72
EPLPVERDPLAGAAPFRFVARPVR | 2.71
EPLPVERDPGAGAAPFRFVARPVR | 2.17
EPLPVERDPDAGAAPFRFVARPVR | 2.46
EPLPVERDPVAGAAPFRFVARPVR | 1.38
EPLPVERDPFAGAAPFRFVARPVR | 1.64
EPLPVERDPAAGAAHFRFVARPVR | 4.05

Variant | protein stability index
EPLPVERDPAAGAAMFRFVARPVR | 3.73
EPLPVERDPAAGAAVFRFVARPVR | 3.12
EPLPVERPPAAGAAPFRFVARPVR | 2.4
EPLPVERSPAAGAAPFRFVARPVR | 2.36
EPLPVERYPAAGAAPFRFVARPVR | 2.63
EPLPVERLPAAGAAPFRFVARPVR | 2.22
EPLPVERAPAAGAAPFRFVARPVR | 2.26
EPLPVERCPAAGAAPFRFVARPVR | 2.37
EPLPVEREPAAGAAPFRFVARPVR | 2.13
EPLPVERVPAAGAAPFRFVARPVR | 2.4
EPLPVERHPAAGAAPFRFVARPVR | 2.25
EPLPVERMPAAGAAPFRFVARPVR | 2.46
EPLPVVRDPAAGAAPFRFVARPVR | 3.22
EPLPVSRDPAAGAAPFRFVARPVR | 1.96
EPLPVCRDPAAGAAPFRFVARPVR | 3.25
EPLPVDRDPAAGAAPFRFVARPVR | 1.68
EPLPVQRDPAAGAAPFRFVARPVR | 2.52
EPLPVFRDPAAGAAPFRFVARPVR | 3.14
EILPVERDPAAGAAPFRFVARPVR | 2.12
EELPVERDPAAGAAPFRFVARPVR | 2.23
EDLPVERDPAAGAAPFRFVARPVR | 2.55

Variants of: B2
Experiment: as above
Conditions: c terminus: a fixed tail appended

Variant | protein stability index
CALNALTTTVCLVAAALRYLQIFE | 2.8
CALNALTTTVCLVAAALRYLQIFD | 2.51
CALNALTTTVCLVAAALRYLQIFI | 2.19
CALNALTTTVCLVAAALRYLQIFF | 2.59
CALNALTTTVCLVAAALRYLQIFS | 4.25
CALNALTTTVCLVAAALRYLQIFP | 2.09
CALNALTTTVCLVAAALRYLQIFM | 2.65
CALNALTTTVCLVAAALRYLQIFL | 2.63
CALNALTTTVCLVAAALRYLQIFW | 2.96
CALNALTTTVCLVAAALRYLQIFG | 4.19
CALNALTTTVCLVAAALRYLQIFN | 1.88
CALNALTTTVCLVAAALRYLQIFY | 3.32
CALNALTTTVCLVAAALRYLQIFC | 3.96
CALNALTTTVCLVAAALRYLQIFV | 3.43
CALNALTTTVCLVAAALRYLQIFH | 3.64
CALNALTTTVCLVAAALRYLQIFT | 3.23
CALNALTTTVCLVAAALRYLQIKA | 2.94
CALNALTTTVCLVAAALRYLQINA | 4.28
CALNALTTTVCLVAAALRYLQIPA | 3.42
CALNALTTTVCLVAAALRYLQIVA | 4.08
CALNALTTTVCLVAAALRYLQIRA | 3.81
CALNALTTTVCLVAAALRYLQITA | 2.22
CALNALTTTVCLVAAALRYLQILA | 3.45
CALNALTTTVCLVAAALRYLQIMA | 4.05
CALNALTTTVCLVAAALRYLQIQA | 4.3
CALNALTTTVCLVAAALRYLQISA | 3.01
CALNALTTTVCLVAAALRYLQIYA | 2.85

— the supplement of paper PMC10567573
